{
  "source": "the supplement of paper PMC9112550",
  "about": "“Optimization of the antimicrobial peptide Bac7 by deep mutational scanning” (BMC Biology, 2022);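 also: peptides expressed intracellularly from a pBAD plasmid library in pooled LB shake-flask culture, induced with 0.3% L-arabinose, DNA abundance read by NGS, three biological replicates, DESeq2 with apeglm shrinkage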",
  "data": [
    {"system": "Escherichia coli TOP10", "experiment": "shrunken log2 fold change of peptide-encoding DNA abundance (4.5 h post-induction vs induction); higher = less antimicrobial activity (less host growth inhibition)", "conditions": "time post-induction: 4.5 h; library: site-saturation at positions 5, 18, 19, 20", "values": [
      {"sequence": "RRIRQRPPRLPRPRPRPLSTPRP", "shrunken log2 fold change": 0.175},
      {"sequence": "RRIRPRPPRLPRPRPRPPSTPRP", "shrunken log2 fold change": 0.123},
      {"sequence": "RRIRPRPPRLPRPRPRPDDFPRP", "shrunken log2 fold change": -0.371},
      {"sequence": "RRIRFRPPRLPRPRPRPDDLPRP", "shrunken log2 fold change": 0.00489},
      {"sequence": "RRIRIRPPRLPRPRPRPCMMPRP", "shrunken log2 fold change": -0.654},
      {"sequence": "RRIRSRPPRLPRPRPRPRGAPRP", "shrunken log2 fold change": 0.737},
      {"sequence": "RRIRIRPPRLPRPRPRPHVHPRP", "shrunken log2 fold change": -0.165},
      {"sequence": "RRIRTRPPRLPRPRPRPDAVPRP", "shrunken log2 fold change": 0.171},
      {"sequence": "RRIRSRPPRLPRPRPRPWRIPRP", "shrunken log2 fold change": -0.0443},
      {"sequence": "RRIRSRPPRLPRPRPRPGKAPRP", "shrunken log2 fold change": 0.188},
      {"sequence": "RRIRPRPPRLPRPRPRPDMVPRP", "shrunken log2 fold change": -0.177},
      {"sequence": "RRIRIRPPRLPRPRPRPSLYPRP", "shrunken log2 fold change": -0.535},
      {"sequence": "RRIRQRPPRLPRPRPRPYKLPRP", "shrunken log2 fold change": -0.603},
      {"sequence": "RRIRRRPPRLPRPRPRPKRYPRP", "shrunken log2 fold change": 0.00167},
      {"sequence": "RRIRTRPPRLPRPRPRPFASPRP", "shrunken log2 fold change": -0.00185},
      {"sequence": "RRIRKRPPRLPRPRPRPRPAPRP", "shrunken log2 fold change": 0.758},
      {"sequence": "RRIRMRPPRLPRPRPRPEIGPRP", "shrunken log2 fold change": 2.62},
      {"sequence": "RRIRQRPPRLPRPRPRPRIYPRP", "shrunken log2 fold change": -0.159},
      {"sequence": "RRIRKRPPRLPRPRPRPVHIPRP", "shrunken log2 fold change": -0.021},
      {"sequence": "RRIRERPPRLPRPRPRPIHEPRP", "shrunken log2 fold change": 0.0218},
      {"sequence": "RRIRMRPPRLPRPRPRPKVTPRP", "shrunken log2 fold change": 0.209},
      {"sequence": "RRIRMRPPRLPRPRPRPRSKPRP", "shrunken log2 fold change": 0.907},
      {"sequence": "RRIRARPPRLPRPRPRPLCFPRP", "shrunken log2 fold change": 0.195},
      {"sequence": "RRIRCRPPRLPRPRPRPNEPPRP", "shrunken log2 fold change": 0.0197},
      {"sequence": "RRIRFRPPRLPRPRPRPICTPRP", "shrunken log2 fold change": -0.218},
      {"sequence": "RRIRLRPPRLPRPRPRPFLYPRP", "shrunken log2 fold change": -0.656},
      {"sequence": "RRIRMRPPRLPRPRPRPACDPRP", "shrunken log2 fold change": 0.974},
      {"sequence": "RRIRDRPPRLPRPRPRPYHSPRP", "shrunken log2 fold change": -0.198},
      {"sequence": "RRIRRRPPRLPRPRPRPEPNPRP", "shrunken log2 fold change": -0.00852},
      {"sequence": "RRIRQRPPRLPRPRPRPGGEPRP", "shrunken log2 fold change": 0.218},
      {"sequence": "RRIRKRPPRLPRPRPRPRYDPRP", "shrunken log2 fold change": -0.0842},
      {"sequence": "RRIRRRPPRLPRPRPRPAMDPRP", "shrunken log2 fold change": 0.0975},
      {"sequence": "RRIRKRPPRLPRPRPRPRWAPRP", "shrunken log2 fold change": 0.469},
      {"sequence": "RRIRNRPPRLPRPRPRPRCWPRP", "shrunken log2 fold change": 0.108},
      {"sequence": "RRIRLRPPRLPRPRPRPERMPRP", "shrunken log2 fold change": -0.0208},
      {"sequence": "RRIRKRPPRLPRPRPRPSESPRP", "shrunken log2 fold change": 0.0559},
      {"sequence": "RRIRVRPPRLPRPRPRPCSEPRP", "shrunken log2 fold change": -0.128},
      {"sequence": "RRIRRRPPRLPRPRPRPFGTPRP", "shrunken log2 fold change": 0.0468},
      {"sequence": "RRIRERPPRLPRPRPRPNNSPRP", "shrunken log2 fold change": -0.693},
      {"sequence": "RRIRLRPPRLPRPRPRPYQAPRP", "shrunken log2 fold change": 0.0204},
      {"sequence": "RRIRHRPPRLPRPRPRPTKNPRP", "shrunken log2 fold change": -0.312},
      {"sequence": "RRIRRRPPRLPRPRPRPILIPRP", "shrunken log2 fold change": 0.118},
      {"sequence": "RRIRKRPPRLPRPRPRPDCYPRP", "shrunken log2 fold change": 0.012},
      {"sequence": "RRIRVRPPRLPRPRPRPFVYPRP", "shrunken log2 fold change": -0.439},
      {"sequence": "RRIRMRPPRLPRPRPRPAANPRP", "shrunken log2 fold change": -0.00188},
      {"sequence": "RRIRDRPPRLPRPRPRPCRTPRP", "shrunken log2 fold change": -0.173},
      {"sequence": "RRIRWRPPRLPRPRPRPRYAPRP", "shrunken log2 fold change": 0.32},
      {"sequence": "RRIRPRPPRLPRPRPRPHISPRP", "shrunken log2 fold change": -0.422},
      {"sequence": "RRIRLRPPRLPRPRPRPLQQPRP", "shrunken log2 fold change": 0.0442},
      {"sequence": "RRIRARPPRLPRPRPRPYHWPRP", "shrunken log2 fold change": -0.0767},
      {"sequence": "RRIRKRPPRLPRPRPRPFETPRP", "shrunken log2 fold change": 0.163},
      {"sequence": "RRIRTRPPRLPRPRPRPKGGPRP", "shrunken log2 fold change": 0.279},
      {"sequence": "RRIRLRPPRLPRPRPRPMWRPRP", "shrunken log2 fold change": 0.194},
      {"sequence": "RRIRYRPPRLPRPRPRPNQGPRP", "shrunken log2 fold change": -0.00893},
      {"sequence": "RRIRWRPPRLPRPRPRPINTPRP", "shrunken log2 fold change": -0.494},
      {"sequence": "RRIRWRPPRLPRPRPRPMDPPRP", "shrunken log2 fold change": 0.0622},
      {"sequence": "RRIRCRPPRLPRPRPRPMSHPRP", "shrunken log2 fold change": -0.207},
      {"sequence": "RRIRVRPPRLPRPRPRPYQWPRP", "shrunken log2 fold change": -0.175},
      {"sequence": "RRIRMRPPRLPRPRPRPCPVPRP", "shrunken log2 fold change": 0.0171},
      {"sequence": "RRIRERPPRLPRPRPRPTCNPRP", "shrunken log2 fold change": -0.315},
      {"sequence": "RRIRRRPPRLPRPRPRPMISPRP", "shrunken log2 fold change": 0.044},
      {"sequence": "RRIRHRPPRLPRPRPRPGAYPRP", "shrunken log2 fold change": -0.266},
      {"sequence": "RRIRYRPPRLPRPRPRPEMNPRP", "shrunken log2 fold change": -0.0274},
      {"sequence": "RRIRVRPPRLPRPRPRPSWGPRP", "shrunken log2 fold change": 0.0232},
      {"sequence": "RRIRIRPPRLPRPRPRPMEEPRP", "shrunken log2 fold change": -0.00798},
      {"sequence": "RRIRWRPPRLPRPRPRPGGHPRP", "shrunken log2 fold change": 0.494},
      {"sequence": "RRIRIRPPRLPRPRPRPNCHPRP", "shrunken log2 fold change": -0.232},
      {"sequence": "RRIRIRPPRLPRPRPRPIVWPRP", "shrunken log2 fold change": 0.136},
      {"sequence": "RRIRWRPPRLPRPRPRPKRHPRP", "shrunken log2 fold change": 0.467},
      {"sequence": "RRIRKRPPRLPRPRPRPGIKPRP", "shrunken log2 fold change": 0.34},
      {"sequence": "RRIRIRPPRLPRPRPRPVDPPRP", "shrunken log2 fold change": 0.106},
      {"sequence": "RRIRDRPPRLPRPRPRPATNPRP", "shrunken log2 fold change": 0.0922},
      {"sequence": "RRIRARPPRLPRPRPRPSMSPRP", "shrunken log2 fold change": -0.105},
      {"sequence": "RRIRLRPPRLPRPRPRPCDFPRP", "shrunken log2 fold change": 0.092},
      {"sequence": "RRIRFRPPRLPRPRPRPIEAPRP", "shrunken log2 fold change": -0.181}
    ]}
  ]
}
